This note sets out measurements from patent publication US20240076412A1 (NATIONAL INSTITUTE OF BIOLOGICAL SCIENCES BEIJING, published 2024).

Positions count from the first letter of the chain named. Like-named read-outs stand apart in the source and are kept apart here.

In test [1] the target is T1, extracellular domain of human CD47 (CD47-ECD), residues 1-118, with His6 tag and Avi tag (human, UniProt Q08722 19-136, biotin modification at the C-terminus (Avi tag, BirA) in the form called CD47-Bio).
T1 construct: also called CD47-ECD-His6; CD47-Bio; not shown: His6 tag and Avi tag from the vector
The experiment in a line: CD47 binding ELISA, bio-CD47 captured on neutravidin, full-length IgG1.

For test [2], the target named is T1, extracellular domain of human CD47 …. The test is described as follows: SPR (Biacore T200), IgG1 captured on CM5 chip, CD47 as analyte; the column head also prints x 10^6, not applied because kd/ka of the cells gives the KD cell in M [Con't].
Protocol: (§1) 1 μg/mL of anti-CD47 full length IgG1 antibodies were captured onto a CM5 chip for 30 s at 10 μl/min. CD47 in 2-fold serial dilutions (starting at 100 nmol, seven concentrations total) were injected over the antibody-bound surface for 120 s at 30 μl/min followed by a 240 s dissociation phase. After each cycle, the surface was regenerated with magnesium chloride.
Test [3] shares this target. The experiment in a line: SPR (Biacore T200), IgG1 captured on CM5 chip, CD47 as analyte; the column head prints KD (nM), but the cell equals kd/ka in M [Con't].
Protocol: as §1
Test [4] has the same target. The experiment in a line: CD47 binding ELISA, bio-CD47 captured on neutravidin, full-length IgG1. This is another data set of the same source.
Protocol: CD47 binding ELISA: 2 μg/mL of neutravidin (Sigma) in phosphate buffered saline (PBS) was coated in U-bottom 96-well plate (Nunc, MaxiSorp™), 100 μL per well, at 4° C. overnight or 37° C. for 1 hour. 2 μg/mL of bio-CD47 in PBS containing 2% nonfat milk were then captured onto the plates at 100 μL per well by incubation at 30° C. for 1 hour. […] In between each incubation step, the ELISA plate was washed for 6 times with PBST solution (0.05% Tween20 containing PBS) at 200 μL per well. Followed by HRP-conjugated antibody incubation, the ELISA signal was developed by incubating with TMB substrate (Sigma) for 5-10 mins at 30° C. and then stop the reaction with 2M H₂SO₄ at 50 μL per well. The absorbance at 450 nm was read by a microplate reader (Bio-Rad). For scFv-Fc or IgG1 based ELISA, the method was basically the same as described above for phage-scFvs except the bound antibodies were detected by HRP-conjugated mouse anti-human IgG Fc antibody (Sigma).
In FIG. 3, A. Antibodies in the form of full-length IgG1 were 3-fold serial diluted (starting at 10 nM, 12 concentrations total). B. Antibodies in the form of full-length IgG1 were 3-fold serial diluted (starting at 40 nM, 12 concentrations total).
Test [5] shares this target. The test is described as follows: SPR (Biacore T200), IgG1 captured on CM5 chip, CD47 as analyte; the column head also prints x 10^-3, not applied because kd/ka of the cells gives the KD cell in M [Con't].
Protocol: as §1
Test [6] shares this target. The test is described as follows: SIRPα competition ELISA, CD47-ECD-His6 coated, competitor 0.5 nM biotinylated SIRPα-d1-mFc.
Protocol: (§2) The wash, development and read steps are the same as hCD47 binding ELISA. The OD450 values were transformed to Inhibition % in data analysis.
(§3) B. Antibodies in the form of full-length IgG1 were 3-fold serial diluted (starting at 40 nM, 12 concentrations total).
Test [7] deals with extracellular domain of human CD47 (CD47-ECD), residues 1-118, with His6 tag and Avi tag (human) (UniProt Q08722). The test is described as follows: SPR (Biacore), scFv-hFc captured on anti-human IgG Fc CM5 chip, CD47 as analyte, 1:1 model; column head x 10^-3 applied.
Test [8] shares this target. The experiment in a line: SPR (Biacore), scFv-hFc captured on anti-human IgG Fc CM5 chip, CD47 as analyte, 1:1 Langmuir model.
Test [9] has the same target. The experiment in a line: competition of the CD47/SIRPα interaction (% inhibition); the format is not stated for this panel, taken as the SIRPα competition ELISA of Example 1 with labelled SIRPα as competitor.
The target is the same in test [10]. The test is described as follows: SPR (Biacore), scFv-hFc captured on anti-human IgG Fc CM5 chip, CD47 as analyte, 1:1 model; column head x 10^6 applied.
The target of test [11] is T1, extracellular domain of human CD47 …. The experiment in a line: SIRPα competition ELISA, CD47-ECD-His6 coated, competitor 0.8 nM biotinylated SIRPα-d1-mFc.
Protocol: as §2, §3
For test [12] the target is unchanged. The experiment in a line: SPR (Biacore T200), IgG1 captured on CM5 chip, CD47 as analyte [Con't].
Protocol: SPR was performed on a Biacore T200. 1 μg/mL of anti-CD47 full length IgG1 antibodies were captured onto a CM5 chip for 30 s at 10 μl/min. CD47 in 2-fold serial dilutions (starting at 100 nmol, seven concentrations total) were injected over the antibody-bound surface for 120 s at 30 μl/min followed by a 240 s dissociation phase. After each cycle, the surface was regenerated with magnesium chloride.
Test [13] has as its target hCD47 protein (SPR analyte of Example 2) (human, UniProt Q08722 19-139, limits assumed). The test is described as follows: SPR (Biacore T200), IgG1 captured on protein A/G CM5 chip, human CD47 as analyte.
Protocol: All SPR analyses were performed on a Biacore T200 instrument (Biacore, GE Healthcare). […] The association rates (Kₒₙ), dissociation rates (Koff), and affinity constants (KD) were calculated using BiacoreT200 evaluation software.
The target of test [14] is T2, hGPC3-ΔHS (human, UniProt P51654 25-559, limits assumed).
T2 construct: also called hGPC3-ΔHS protein
The experiment in a line: SPR, antibody captured by anti-human Fc antibodies on CM5 chip, hGPC3 injected first, then hCD47.

Test [15] addresses extracellular domain of human CD47 (CD47-ECD), residues 1-118, with His6 tag and Avi tag (human) (UniProt Q08722). The test is described as follows: phage-scFv ELISA on captured CD47-Bio.
In test [16] the target is T1, extracellular domain of human CD47 …. The test is described as follows: self-competition of unlabelled SIRPα against labelled SIRPα for CD47 (% inhibition); the sheet prints only SIRPα, taken as the unlabelled SIRPα-d1-mFc of the competition ELISA of Example 1.

B1: B6H12 (antibody)
chain: EVQLVESGGDLVKPGGSLKLSCAASGFTFSGYGMSWVRQTPDKRLEWVATITSGGTYTYYPDSVKGRFTISRDNAKNTLYLQIDSLKSEDTAIYFCARSLAGNAMDYWGQGTSVTVSSGGGGSGGGGSGGGGSDIVMTQSPATLSVTPGDRVSLSCRASQTISDYLHWYQQKSHESPRLLIKFASQSISGIPSRFSGSGSGSDFTLSINSVEPEDVGVYYCQNGHGFPRTFGGGTKLEIK
Regarding B1, the half-maximal effective concentration (EC50 (read off the curve)) in test [1] is around 0.02 nM.

B2: AB6.12 (antibody, V domains shown)
VH: QMQLVQSGAEVKKTGSSVKVSCKASGFNIKDYYLHWVRQAPGQALEWMGWIDPDQGDTEYAQKFQDRVTITRDRSMSTAYMELSSLRSEDTAMYYCNAAYGSSSYPMDYWGQGTTVTVSS
VL: NIQMTQSPSAMSASVGDRVTITCKASQDIHRYLSWFQQKPGKVPKHLIYRANRLVSGVPSRFSGSGSGTEFTLTISSLQPEDFATYYCLQYDEFPYTFGGGTKVEIKR
As for B2, the on-rate (kon) in test [2] was 1.06e+06 M⁻¹ s⁻¹. In test [3], this molecule displayed a Kd of 1.76 nM. The “EC50 (read off the curve)” value in test [4] was around 0.2 nM. In addition, in test [5], the koff amounted to 0.00186 s⁻¹. Moreover, the “IC50 (read off the curve)” value in test [6] was around 6 nM.

B3: BC18 scFv-hFc (Fc fusion, part only; not given: scFv linker, domain order, IgG1 Fc, not shown: another chain or arm of the molecule; a dimerising Fc or GST; small tags and cut ends)
VH: QVQLQQSGPGLVKPSETLSLTCTVSGDSINYHYWSWIRQPPGKGLEWIGYIYYSGSTTYNPSLKSRVTMSVDPSKNHFSLKLTSVTAADTALYFCARQRGAYDYWGQGTQVTVSS
VL: DIQLTQSPSSVSASVGDRVTIACRASQDIGSRLVWYQQRPGKAPKLLIYAASSLQSGVPSRFSGSGSGTDFTLTISSLQPEDFATYYCQQSYSTPYSFGQGTKLEIK
As to B3, the koff in test [7] was 0.00328 s⁻¹. In addition, the Kd in test [8] worked out at 1.43 nM. In addition, in test [9], the IC50 (read off the curve) stood at 10 nM. Also, the kon in [10] was 2.41e+06 M⁻¹ s⁻¹.

B4: BC7 scFv-hFc (Fc fusion, part only; not given: scFv linker, domain order, IgG1 Fc, not shown: another chain or arm of the molecule; a dimerising Fc or GST; small tags and cut ends)
VH: B3 VH with Q110L
VL: DIVMTQSPSSVSASVGDRVTITCRASQGIGSRLAWYQQKPGKAPQLLIYAASSLQSGVPSRFSGSGSGTEFTLTISSLQPDDFATYYCQQYNSFSPITFGQGTRLEIK
Regarding B4, in test [7], the koff amounted to 0.006 s⁻¹. Moreover, in [8], the Kd was found to be 3.27 nM. For the same molecule, in [10], the on-rate (kon) is 1.84e+06 M⁻¹ s⁻¹.

B5: BC7 full-length human IgG1 (antibody, V domains shown)
VH: B3 VH with Q110L
VL: B4 VL
For the molecule B5, in [1], the “EC50 (read off the curve)” value is around 0.01 nM. Also, the “IC50 (read off the curve)” value in test [11] was around 4 nM. In test [12], this molecule registered a Kd of 4.81 nM, a koff of 0.00394 s⁻¹ and an on-rate (kon) of 816000 M⁻¹ s⁻¹.

B6: BC18 full-length human IgG1 (antibody, V domains shown)
VH: B3 VH
VL: B3 VL
notes: also called anti-CD47 mAb; parental anti-CD47 mAb
For the molecule B6, the kon in [2] amounted to 557000 M⁻¹ s⁻¹; in [13] it was 679000 M⁻¹ s⁻¹; in [12], 721000 M⁻¹ s⁻¹. In addition, the Kd was 1.11 nM in test [13], 2.22 nM in [3] and 1.62 nM in test [12]. Moreover, the dissociation rate constant (koff) worked out at 0.000753 s⁻¹ in test [13], 0.00123 s⁻¹ in test [5] and 0.00117 s⁻¹ in test [12]. The “EC50 (read off the curve)” value in test [4] and in [1] was around 0.01 nM each time. Moreover, the binding result in [14] was “no binding”. Also, the “IC50 (read off the curve)” value in test [11] and in test [6] was around 3 nM each time.

B7: BC7 phage-scFv (scFv, part only; not given: scFv linker, domain order, phage fusion, V domains shown, not shown: another chain or arm of the molecule; large carriers; small tags and cut ends)
VH: B3 VH with Q110L
VL: B4 VL
In test [15], B7 came in with an optical density at 450 nm above 0.2 OD450.

B8: BC18 phage-scFv (scFv, part only; not given: scFv linker, domain order, phage fusion, V domains shown, not shown: another chain or arm of the molecule; large carriers; small tags and cut ends)
VH: B3 VH
VL: B3 VL
As to B8, the optical density at 450 nm in [15] is above 0.2 OD450.

B9: BC7m04 (antibody, IgG1, V domains shown)
VH: B3 VH with Q110L
VL: B4 VL with G28D, Q45K, E70D, D81E
In test [12], B9 displayed a Kd of 1.55 nM, a koff of 0.00118 s⁻¹ and a kon of 763000 M⁻¹ s⁻¹.

B10: BC18m03 (antibody, IgG1, V domains shown)
VH: B3 VH with Q6E, Q110L
VL: B3 VL
Take B10: in [12], binding was characterised by a dissociation constant (Kd) of 1.6 nM, the off-rate (koff) is 0.00122 s⁻¹ and the kon came to 762000 M⁻¹ s⁻¹.

B11: BC7m03 (antibody, IgG1, V domains shown)
VH: B3 VH with Q110L
VL: B4 VL with G28D
Take B11: in [12], the Kd came out at 1.46 nM, the koff came to 0.00118 s⁻¹ and the kon came to 806000 M⁻¹ s⁻¹.

B12: SIRPα-d1-mFc fusion protein (Fc fusion, human, UniProt P78324 31-148, looked up)
chain: EEELQVIQPDKSVLVAAGETATLRCTATSLIPVGPIQWFRGAGPGRELIYNQKEGHFPRVTTVSDLTKRNNMDFSIRIGNITPADAGTYYCVKFRKGSPDDVEFKSGAGTELSVRAKP
modifications: biotinylated with Sulfo-NHS-SS-Biotin where used as the labelled ligand
notes: range 1-148; also called bio-SIRPα-d1-mFc; biotinylated SIRPα-d1-mFc; not shown: mouse IgG2a Fc fragment
As to B12, the “IC50 (read off the curve)” value in [16] is around 4 nM.
